{"source": "paper PMC9352680", "about": "“A comprehensive thermodynamic model for RNA binding by the Saccharomyces cerevisiae Pumilio protein PUF4”", "binders": {"B1": {"name": "Ic_S4_P4E.1_K4.1_C4.1_H4.1_A4.1_[T5C]_[A6C]_F4.1_[T8A]_T4.1 (ssRNA)", "RNA": "UUUGACAACUGAUCGUUCUUUCUUGUACCUAAUUCUUUCUCGAUCAGUUGUCUUU"}, "B2": {"name": "Ic_S4_P4E.1_K4.1_C4.1_H4.1_A4.1_[T5C]_[A6C]_F4.1_[A9T]_T4.1 (ssRNA)", "RNA": "B1 RNA with A31U, A32U"}, "B3": {"name": "Ic_S4_P4E.1_K4.1_C4.1_H4.1_A4.1_[T5C]_[A6C]_F4.1_T4.1 (ssRNA)", "RNA": "B1 RNA with A31U"}, "B4": {"name": "Ic_S4_P4E.1_K4.1_C4.1_H4.1_A4.1_[T5C]_[A6T]_[T7G]_F4.1_[T8G]_[A9T]_T4.1 (ssRNA)", "RNA": "B1 RNA with C29U, U30G, A31G, A32U"}, "B5": {"name": "Ic_S4_P4E.1_K4.1_C4.1_H4.1_A4.1_[T5C]_[A6T]_[T7G]_F4.1_[T8C]_[A9G]_T4.1 (ssRNA)", "RNA": "B1 RNA with C29U, U30G, A31C, A32G"}, "B6": {"name": "Ic_S4_P4E.1_K4.1_C4.1_H4.1_A4.1_[T5C]_[A6T]_[T7G]_F4.1_[T8C]_T4.1 (ssRNA)", "RNA": "B1 RNA with C29U, U30G, A31C"}, "B7": {"name": "Ic_S4_P4E.1_K4.1_C4.1_H4.1_A4.1_[T5C]_[A6T]_[T7G]_F4.1_[A9T]_T4.1 (ssRNA)", "RNA": "B1 RNA with C29U, U30G, A31U, A32U"}, "B8": {"name": "Ic_S4_P4E.1_K4.1_C4.1_H4.1_A4.1_[T5C]_[A6T]_[T7G]_F4.1_T4.1 (ssRNA)", "RNA": "B1 RNA with C29U, U30G, A31U"}, "B9": {"name": "Ic_S4_P4E.1_K4.1_C4.1_H4.1_A4.1_[T5C]_[A6T]_[T7C]_F4.1_[T8G]_[A9T]_T4.1 (ssRNA)", "RNA": "B1 RNA with C29U, U30C, A31G, A32U"}, "B10": {"name": "Ic_S4_P4E.1_K4.1_C4.1_H4.1_A4.1_[T5C]_[A6T]_[T7C]_F4.1_[T8C]_[A9G]_T4.1 (ssRNA)", "RNA": "B1 RNA with C29U, U30C, A31C, A32G"}, "B11": {"name": "Ic_S4_P4E.1_K4.1_C4.1_H4.1_A4.1_[T5C]_[A6T]_[T7C]_F4.1_[T8C]_[A9C]_T4.1 (ssRNA)", "RNA": "B1 RNA with C29U, U30C, A31C, A32C"}, "B12": {"name": "Ic_S4_P4E.1_K4.1_C4.1_H4.1_A4.1_[T5C]_[A6T]_[T7C]_F4.1_[T8A]_[A9G]_T4.1 (ssRNA)", "RNA": "B1 RNA with C29U, U30C, A32G"}, "B13": {"name": "Ic_S4_P4E.1_K4.1_C4.1_H4.1_A4.1_[T5C]_[A6T]_[T7C]_F4.1_[T8A]_T4.1 (ssRNA)", "RNA": "B1 RNA with C29U, U30C"}, "B14": {"name": "Ic_S4_P4E.1_K4.1_C4.1_H4.1_A4.1_[T5C]_[A6T]_[T7C]_F4.1_[A9C]_T4.1 (ssRNA)", "RNA": "B1 RNA with C29U, U30C, A31U, A32C"}, "B15": {"name": "Ic_S4_P4E.1_K4.1_C4.1_H4.1_A4.1_[T5C]_[A6T]_[T7A]_F4.1_[T8C]_[A9G]_T4.1 (ssRNA)", "RNA": "B1 RNA with C29U, U30A, A31C, A32G"}, "B16": {"name": "Ic_S4_P4E.1_K4.1_C4.1_H4.1_A4.1_[T5C]_[A6T]_[T7A]_F4.1_[T8C]_[A9T]_T4.1 (ssRNA)", "RNA": "B1 RNA with C29U, U30A, A31C, A32U"}, "B17": {"name": "Ic_S4_P4E.1_K4.1_C4.1_H4.1_A4.1_[T5C]_[A6T]_[T7A]_F4.1_[T8C]_T4.1 (ssRNA)", "RNA": "B1 RNA with C29U, U30A, A31C"}, "B18": {"name": "Ic_S4_P4E.1_K4.1_C4.1_H4.1_A4.1_[T5C]_[A6T]_[T7A]_F4.1_[T8A]_[A9C]_T4.1 (ssRNA)", "RNA": "B1 RNA with C29U, U30A, A32C"}, "B19": {"name": "Ic_S4_P4E.1_K4.1_C4.1_H4.1_A4.1_[T5C]_[A6T]_[T7A]_F4.1_[T8A]_T4.1 (ssRNA)", "RNA": "B1 RNA with C29U, U30A"}, "B20": {"name": "Ic_S4_P4E.1_K4.1_C4.1_H4.1_A4.1_[T5C]_[A6T]_[T7A]_F4.1_[A9C]_T4.1 (ssRNA)", "RNA": "B1 RNA with C29U, U30A, A31U, A32C"}, "B21": {"name": "Ic_S4_P4E.1_K4.1_C4.1_H4.1_A4.1_[T5C]_[A6T]_F4.1_[T8C]_[A9C]_T4.1 (ssRNA)", "RNA": "B1 RNA with C29U, A31C, A32C"}, "B22": {"name": "Ic_S4_P4E.1_K4.1_C4.1_H4.1_A4.1_[T5C]_[A6T]_F4.1_[T8C]_[A9T]_T4.1 (ssRNA)", "RNA": "B1 RNA with C29U, A31C, A32U"}, "B23": {"name": "Ic_S4_P4E.1_K4.1_C4.1_H4.1_A4.1_[T5C]_[A6T]_F4.1_[T8A]_[A9C]_T4.1 (ssRNA)", "RNA": "B1 RNA with C29U, A32C"}, "B24": {"name": "Ic_S4_P4E.1_K4.1_C4.1_H4.1_A4.1_[T5C]_[A6T]_F4.1_[A9C]_T4.1 (ssRNA)", "RNA": "B1 RNA with C29U, A31U, A32C"}, "B25": {"name": "Ic_S4_P4E.1_K4.1_C4.1_H4.1_A4.1_[T5C]_[A6T]_F4.1_[A9T]_T4.1 (ssRNA)", "RNA": "B1 RNA with C29U, A31U, A32U"}, "B26": {"name": "Ic_S4_P4E.1_K4.1_C4.1_H4.1_A4.1_[T5C]_[T7G]_F4.1_[T8C]_[A9C]_T4.1 (ssRNA)", "RNA": "B1 RNA with C29A, U30G, A31C, A32C"}, "B27": {"name": "Ic_S4_P4E.1_K4.1_C4.1_H4.1_A4.1_[T5C]_[T7G]_F4.1_[T8C]_[A9T]_T4.1 (ssRNA)", "RNA": "B1 RNA with C29A, U30G, A31C, A32U"}}, "molecular_target": "T1, PUF4 RNA-binding domain (Saccharomyces cerevisiae, UniProt P25339 537-888)", "T1 sequence": "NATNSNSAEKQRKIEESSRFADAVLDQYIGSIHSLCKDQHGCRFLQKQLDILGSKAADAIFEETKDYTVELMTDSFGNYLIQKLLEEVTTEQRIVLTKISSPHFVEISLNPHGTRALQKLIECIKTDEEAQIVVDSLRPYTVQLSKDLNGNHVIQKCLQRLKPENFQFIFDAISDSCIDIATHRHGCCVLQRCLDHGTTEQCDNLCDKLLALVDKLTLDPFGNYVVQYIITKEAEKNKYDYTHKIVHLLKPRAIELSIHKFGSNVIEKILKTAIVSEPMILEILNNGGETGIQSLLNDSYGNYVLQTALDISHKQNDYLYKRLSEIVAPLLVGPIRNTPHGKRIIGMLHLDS", "assay": "Mg; RNA-MaP; 20 mM Na-HEPES pH 7.4, 30 mM KOAc, 0.75 mM MgCl2, 0.1% Tween-20, 5% glycerol, 0.1 mg/mL BSA, 2 mM DTT; 25 C; 0.0125-409.6 nM protein", "conditions": "tags: N-His6-TEV cleaved; C-SNAP kept, Cy3B-labelled; label: tethered on chip by stalled RNA polymerase", "note": "Where a chain is given by its changes, count along the chain named. Names and notes keep the numbering of the source."}
{"binder": "B1", "values": [{"measurement": "Kd", "value": 0.0157, "unit": "µM"}]}
{"binder": "B2", "values": [{"measurement": "Kd", "value": 0.0108, "unit": "µM"}]}
{"binder": "B3", "values": [{"measurement": "Kd", "value": 0.00174, "unit": "µM"}]}
{"binder": "B4", "values": [{"measurement": "Kd", "value": 0.975, "unit": "µM"}]}
{"binder": "B5", "values": [{"measurement": "Kd", "value": 0.916, "unit": "µM"}]}
{"binder": "B6", "values": [{"measurement": "Kd", "value": 0.786, "unit": "µM"}]}
{"binder": "B7", "values": [{"measurement": "Kd", "value": 0.0546, "unit": "µM"}]}
{"binder": "UCUCUUUGUAAAUCAUCUCUU (ssRNA)", "note": "[Ib_S1_P4E.1_K4.1_C4.1_H4.1_A4.1_[T5A]_F4.1_[T8C]_T4.1]", "values": [{"measurement": "Kd", "value": 0.0391, "unit": "µM"}]}
{"binder": "B8", "values": [{"measurement": "Kd", "value": 0.00386, "unit": "µM"}]}
{"binder": "B9", "values": [{"measurement": "Kd", "value": 0.139, "unit": "µM"}]}
{"binder": "B10", "values": [{"measurement": "Kd", "value": 0.551, "unit": "µM"}]}
{"binder": "B11", "values": [{"measurement": "Kd", "value": 0.394, "unit": "µM"}]}
{"binder": "B12", "values": [{"measurement": "Kd", "value": 0.819, "unit": "µM"}]}
{"binder": "B13", "values": [{"measurement": "Kd", "value": 0.0962, "unit": "µM"}]}
{"binder": "B14", "values": [{"measurement": "Kd", "value": 0.0233, "unit": "µM"}]}
{"binder": "B15", "values": [{"measurement": "Kd", "value": 0.563, "unit": "µM"}]}
{"binder": "B16", "values": [{"measurement": "Kd", "value": 0.0583, "unit": "µM"}]}
{"binder": "B17", "values": [{"measurement": "Kd", "value": 0.279, "unit": "µM"}]}
{"binder": "UCUCUUUGUACAUAAUCUCUU (ssRNA)", "note": "[Ic_S1_P4E.1_K4.1_C4.1_H4.1_A4.1_[T5C]_F4.1_[T8A]_T4.1]", "values": [{"measurement": "Kd", "value": 0.00609, "unit": "µM"}]}
{"binder": "B18", "values": [{"measurement": "Kd", "value": 0.404, "unit": "µM"}]}
{"binder": "B19", "values": [{"measurement": "Kd", "value": 0.0217, "unit": "µM"}]}
{"binder": "B20", "values": [{"measurement": "Kd", "value": 0.0158, "unit": "µM"}]}
{"binder": "B21", "values": [{"measurement": "Kd", "value": 0.0945, "unit": "µM"}]}
{"binder": "B22", "values": [{"measurement": "Kd", "value": 0.0325, "unit": "µM"}]}
{"binder": "B23", "values": [{"measurement": "Kd", "value": 0.108, "unit": "µM"}]}
{"binder": "B24", "values": [{"measurement": "Kd", "value": 0.0131, "unit": "µM"}]}
{"binder": "B25", "values": [{"measurement": "Kd", "value": 0.00637, "unit": "µM"}]}
{"binder": "B26", "values": [{"measurement": "Kd", "value": 0.0894, "unit": "µM"}]}
{"binder": "B27", "values": [{"measurement": "Kd", "value": 0.0551, "unit": "µM"}]}
